# Assay results from publication PMC10787763, “Two-substrate enzyme engineering using small libraries that combine the substrate preferences from two different variant lineages” (Scientific Reports, 2024).
# Substrate: O=Cc1cccc(C(=O)O)c1
# Test: initial-rate kinetics by RP-HPLC, Michaelis-Menten fit
# Type: biochemical, Escherichia coli
# Details: TK-3, acceptor substrate varied, 50 mM pyruvate as donor, 2.4 mM ThDP, 9 mM MgCl2, 50 mM Tris-HCl pH 7.0, 21 °C, error is SEM
# Text: initial-rate kinetics by RP-HPLC, Michaelis-Menten fit on E. coli transketolase (TK), 6M variant scaffold
protein,measurement,value
"E. coli transketolase (TK), 6M variant scaffold (Escherichia coli K-12; A282P/D469T/G506A/H100L/H192P/I365L/S385F) (protein, full-length, C-terminal His6 tag, expressed in E. coli from lab plasmid (pQR791 / pQR729), Ni-NTA purified; holo-TK with ThDP and Mg2+; non-natural residue by amber suppression in TK-5C) MSSRKELANAIRALSMDAVQKAKSGHPGAPMGMADIAEVLWRDFLKHNPQNPSWADRDRFVLSNGHGSMLIYSLLHLTGYDLPMEELKNFRQLHSKTPGLPEVGYTAGVETTTGPLGQGIANAVGMAIAEKTLAAQFNRPGHDIVDHYTYAFMGDGCMMEGISHEVCSLAGTLKLGKLIAFYDDNGISIDGPVEGWFTDDTAMRFEAYGWHVIRDIDGHDAASIKRAVEEARAVTDKPSLLMCKTIIGFGSPNKAGTHDSHGAPLGDAEIALTREQLGWKYPPFEIPSEIYAQWDAKEAGQAKESAWNEKFAAYAKAYPQEAAEFTRRMKGEMPSDFDAKAKEFIAKLQANPAKIASRKASQNALEAFGPLLPEFLGGSADLAPFNLTLWSGSKAINEDAAGNYIHYGVREFGMTAIANGISLHGGFLPYTSTFLMFVEYARNAVRMAALMKQRQVMVYTHDSIGLGETGPTHQPVEQVASLRVTPNMSTWRPCDQVESAVAWKYAVERQDGPTALILSRQNLAQQERTEEQLANIARGGYVLKDCAGQPELIFIATGSEVELAVAAYEKLTAEGVKARVVSMPSTDAFDKQDAAYRESVLPKAVTARVAVEAGIADYWYKYVGLNGAIVGMTTFGESAPAELLFEEFGFTVDNVVAKAKELL",Km,82 (11) mM
same,Vmax,3500 µM/min
same,kcat,43 s⁻¹
